According to the supplement of paper PMC9112550, “Optimization of the antimicrobial peptide Bac7 by deep mutational scanning” (BMC Biology, 2022):

System: Escherichia coli TOP10
Assay: shrunken log2 fold change of peptide-encoding DNA abundance (4.5 h post-induction vs induction); higher = less antimicrobial activity (less host growth inhibition)
Conditions: time post-induction: 4.5 h; library: site-saturation at positions 5, 18, 19, 20
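Also: peptides expressed intracellularly from a pBAD plasmid library in pooled LB shake-flask culture, induced with 0.3% L-arabinose, DNA abundance read by NGS, three biological replicates, DESeq2 with apeglm shrinkage.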

Sequence	shrunken log2 fold change
RRIRRRPPRLPRPRPRPWLQPRP	0.0763
RRIRIRPPRLPRPRPRPGGMPRP	-0.0648
RRIRQRPPRLPRPRPRPWLEPRP	0.0751
RRIRLRPPRLPRPRPRPICPPRP	0.00212
RRIRARPPRLPRPRPRPMQDPRP	0.188
RRIRSRPPRLPRPRPRPFQPPRP	-0.133
RRIRERPPRLPRPRPRPGSWPRP	2.45
RRIRARPPRLPRPRPRPMWCPRP	0.172
RRIRNRPPRLPRPRPRPHQCPRP	-0.0318
RRIRNRPPRLPRPRPRPLSMPRP	-0.012
RRIRHRPPRLPRPRPRPEQGPRP	0.0631
RRIRMRPPRLPRPRPRPQQSPRP	0.0524
RRIRDRPPRLPRPRPRPSNNPRP	-0.487
RRIRIRPPRLPRPRPRPRQKPRP	-0.028
RRIRVRPPRLPRPRPRPEKEPRP	0.0209
RRIRSRPPRLPRPRPRPTQYPRP	-0.0116
RRIRTRPPRLPRPRPRPDMCPRP	-0.0287
RRIRYRPPRLPRPRPRPLLFPRP	-0.614
RRIRVRPPRLPRPRPRPQTQPRP	0.104
RRIRYRPPRLPRPRPRPFGQPRP	-0.219
RRIRKRPPRLPRPRPRPNRCPRP	0.0393
RRIRLRPPRLPRPRPRPKFLPRP	-0.173
RRIRTRPPRLPRPRPRPCCNPRP	-0.282

Sequence	shrunken log2 fold change
RRIRMRPPRLPRPRPRPDNHPRP	-0.21
RRIRSRPPRLPRPRPRPPFEPRP	0.518
RRIRVRPPRLPRPRPRPCDKPRP	-0.323
RRIRPRPPRLPRPRPRPQMEPRP	0.0168
RRIRMRPPRLPRPRPRPPLIPRP	0.242
RRIRCRPPRLPRPRPRPPLKPRP	0.353
RRIRPRPPRLPRPRPRPWHVPRP	-0.0812
RRIRVRPPRLPRPRPRPMRHPRP	-0.00914
RRIRFRPPRLPRPRPRPNLGPRP	-0.0272
RRIRRRPPRLPRPRPRPCNSPRP	0.00408
RRIRDRPPRLPRPRPRPCLSPRP	0.000319
RRIRDRPPRLPRPRPRPIGTPRP	0.208
RRIRRRPPRLPRPRPRPYIDPRP	-0.339
RRIRNRPPRLPRPRPRPINRPRP	-0.0423
RRIRIRPPRLPRPRPRPWRWPRP	0.182
RRIRIRPPRLPRPRPRPFSPPRP	-0.267
RRIRKRPPRLPRPRPRPPESPRP	0.303
RRIRVRPPRLPRPRPRPHGRPRP	-0.0651
RRIRIRPPRLPRPRPRPWMFPRP	-0.261
RRIRRRPPRLPRPRPRPNQNPRP	0.14
RRIRGRPPRLPRPRPRPWFFPRP	0.169
RRIRKRPPRLPRPRPRPASDPRP	0.981
RRIRQRPPRLPRPRPRPEWIPRP	-0.00133

Sequence	shrunken log2 fold change
RRIRQRPPRLPRPRPRPRQQPRP	-0.0145
RRIRFRPPRLPRPRPRPYYTPRP	-0.369
RRIRWRPPRLPRPRPRPYNLPRP	-0.991
RRIRVRPPRLPRPRPRPITQPRP	-0.0754
RRIRGRPPRLPRPRPRPMDDPRP	0.994
RRIRSRPPRLPRPRPRPIVRPRP	-0.11
RRIRLRPPRLPRPRPRPNWKPRP	-0.225
RRIRQRPPRLPRPRPRPIVWPRP	-0.287
RRIRERPPRLPRPRPRPYLRPRP	-0.319
RRIRSRPPRLPRPRPRPGIKPRP	-0.0207
RRIRDRPPRLPRPRPRPDGRPRP	0.655
RRIRIRPPRLPRPRPRPMTMPRP	-0.01
RRIRYRPPRLPRPRPRPKHPPRP	-0.155
RRIRGRPPRLPRPRPRPCIKPRP	0.268
RRIRIRPPRLPRPRPRPARVPRP	-0.0658
RRIRKRPPRLPRPRPRPVSMPRP	0.224
RRIRLRPPRLPRPRPRPRPCPRP	0.421
RRIRRRPPRLPRPRPRPWFTPRP	0.0255
RRIRHRPPRLPRPRPRPLEWPRP	-0.0135
RRIRSRPPRLPRPRPRPGYMPRP	-0.148
RRIRMRPPRLPRPRPRPHREPRP	0.104
RRIRFRPPRLPRPRPRPPWLPRP	0.509
RRIRERPPRLPRPRPRPICNPRP	-1.25

Sequence	shrunken log2 fold change
RRIRDRPPRLPRPRPRPKYCPRP	-0.0392
RRIRFRPPRLPRPRPRPKEMPRP	-0.0141
RRIRIRPPRLPRPRPRPPAQPRP	0.0916
RRIRTRPPRLPRPRPRPRGRPRP	0.593
RRIRERPPRLPRPRPRPVVPPRP	-0.158
RRIRRRPPRLPRPRPRPKDCPRP	0.132
RRIRGRPPRLPRPRPRPASMPRP	0.548
RRIRWRPPRLPRPRPRPPPAPRP	1.2
RRIRIRPPRLPRPRPRPARAPRP	0.307
RRIRKRPPRLPRPRPRPEAYPRP	0.0226
RRIRERPPRLPRPRPRPAGKPRP	-0.0958
RRIRARPPRLPRPRPRPRIAPRP	0.631
RRIRDRPPRLPRPRPRPWKQPRP	-0.0551
RRIRQRPPRLPRPRPRPVCRPRP	0.198
RRIRCRPPRLPRPRPRPAASPRP	0.246
RRIRVRPPRLPRPRPRPDWSPRP	-0.316
RRIRTRPPRLPRPRPRPDWPPRP	0.135
RRIRARPPRLPRPRPRPHAWPRP	0.375
RRIRHRPPRLPRPRPRPRFMPRP	0.0821
RRIRSRPPRLPRPRPRPDCEPRP	0.259
RRIRDRPPRLPRPRPRPREHPRP	-0.118
RRIRFRPPRLPRPRPRPGRHPRP	0.0867
